# From patent publication US20230012273A1 (Boehringer Ingelheim, published 2023)
# T1: cynomolgus SIRPα (EGM_02252) extracellular domain + His-tag (cynomolgus monkey)
# T1 construct: SPR analyte; also called CySIRPα EGM_02252; cynoSIRPα; not shown: His-tag
# T1 chain: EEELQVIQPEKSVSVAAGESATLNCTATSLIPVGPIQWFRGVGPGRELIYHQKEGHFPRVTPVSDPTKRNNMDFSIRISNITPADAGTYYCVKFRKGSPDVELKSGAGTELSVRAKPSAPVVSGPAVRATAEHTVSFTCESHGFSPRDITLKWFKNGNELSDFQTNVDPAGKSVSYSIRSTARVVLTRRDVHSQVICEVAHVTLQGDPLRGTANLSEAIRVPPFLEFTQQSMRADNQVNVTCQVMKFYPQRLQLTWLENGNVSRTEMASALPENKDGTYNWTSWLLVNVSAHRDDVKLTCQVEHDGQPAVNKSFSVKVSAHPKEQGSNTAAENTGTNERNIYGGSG
# T2: cynomolgus SIRPβ1 (XP_005568598) extracellular domain + His-tag (cynomolgus monkey)
# T2 construct: SPR analyte; also called Cyno SIRPβ1 XP_005568598; cynoSIRPβ1; not shown: His-tag
# T2 chain: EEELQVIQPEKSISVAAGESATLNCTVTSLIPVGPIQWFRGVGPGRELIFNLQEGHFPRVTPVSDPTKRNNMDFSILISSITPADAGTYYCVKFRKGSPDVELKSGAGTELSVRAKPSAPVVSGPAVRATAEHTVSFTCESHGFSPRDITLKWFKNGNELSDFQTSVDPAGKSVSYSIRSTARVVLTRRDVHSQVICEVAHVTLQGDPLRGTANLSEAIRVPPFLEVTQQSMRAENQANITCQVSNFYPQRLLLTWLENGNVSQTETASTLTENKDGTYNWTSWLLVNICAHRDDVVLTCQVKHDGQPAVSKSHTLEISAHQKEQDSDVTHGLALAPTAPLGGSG
# T3: cynomolgus SIRPγ (XP_005568591) extracellular domain + His-tag (cynomolgus monkey, UniProt Q9P1W8 29-359 (human entry))
# T3 construct: SPR analyte; also called Cyno SIRPγ XP_005568591; cynoSIRPγ; not shown: His-tag
# T3 chain: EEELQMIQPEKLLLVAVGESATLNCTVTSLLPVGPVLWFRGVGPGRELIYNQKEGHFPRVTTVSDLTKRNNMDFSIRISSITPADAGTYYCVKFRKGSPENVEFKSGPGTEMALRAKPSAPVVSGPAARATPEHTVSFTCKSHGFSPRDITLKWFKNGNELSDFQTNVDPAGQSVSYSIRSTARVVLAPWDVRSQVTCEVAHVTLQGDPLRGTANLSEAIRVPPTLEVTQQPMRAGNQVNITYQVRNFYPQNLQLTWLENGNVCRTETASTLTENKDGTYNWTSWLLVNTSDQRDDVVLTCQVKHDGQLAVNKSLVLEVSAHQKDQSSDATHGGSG
# T4: cynomolgus SIRPβ1v3 (XP_005568593) extracellular domain + His-tag (cynomolgus monkey)
# T4 construct: SPR analyte; also called Cyno SIRPβ1v3 XP_005568593; cynoSIRPβ1v3; not shown: His-tag
# T4 chain: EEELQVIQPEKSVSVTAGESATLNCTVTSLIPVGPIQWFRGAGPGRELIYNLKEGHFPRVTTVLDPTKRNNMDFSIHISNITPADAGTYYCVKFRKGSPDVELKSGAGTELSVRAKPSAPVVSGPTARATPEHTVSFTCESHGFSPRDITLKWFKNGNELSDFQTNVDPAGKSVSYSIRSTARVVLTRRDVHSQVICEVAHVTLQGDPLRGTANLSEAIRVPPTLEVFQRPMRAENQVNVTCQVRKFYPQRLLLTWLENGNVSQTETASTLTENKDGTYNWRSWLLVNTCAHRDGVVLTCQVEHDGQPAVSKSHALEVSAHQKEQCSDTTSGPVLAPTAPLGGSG
# Legend:
# [1] = biological target: T1, cynomolgus SIRPα (EGM_02252) …; test: SPR
# Method: (§1) The binding affinity of anti-SIRPα antibodies to the various SIRPα analytes is determined by surface plasmon resonance (SPR) using a ProteOn XPR36 (Bio-Rad). The running buffer for this experiment and all dilutions (except where stated) are done in 1×HBS-EP+. […] The sensorchip is deactivated with 1M ethanolamine HCl for 420 sec at a flowrate of 10 μl/min.
# (§2) The analyte is injected over the captured antibody for 300 sec at a flowrate of 30 μl/min. The dissociation is done for 600 sec. Two-fold serial dilutions of each SIRP protein (Extracellular Domain+His-Tag) are injected as analyte with the highest concentrations indicated in table 36 below.
# [2] = biological target: T2, cynomolgus SIRPβ1 (XP_005568598) …; test: SPR
# Method: as §1, §2
# [3] = biological target: T3, cynomolgus SIRPγ (XP_005568591) …; test: SPR
# Method: as §1, §2
# [4] = biological target: T4, cynomolgus SIRPβ1v3 (XP_005568593) …; test: SPR, antibody captured, ECD-His analyte
# Method: as §1, §2
binding result [1],binding result [2],binding result [3],Kd [4] [nM],Binder
no binding (tested: 1000 nM),no binding (tested: 1000 nM),no binding (tested: 1000 nM),57.4,"Antibody E20 (antibody, human IgG1, kappa, L234A L235A, V domains shown) VH: QVQLQESGPGLVRPSETLSLTCTVSGGSIRNYYWSWIRQPPGKGLEWIGFIYYTGRTFYNPSLKSRVTISLDMSINQFSLKMTSVTAADTAVYYCARVRAYSGIGLDGTDVWGQGTTVTVSS VL: DIVMTQSPLSLPVTPGEPASISCKSSQSLLYSNAYNYLDWYLQRPGQSPQLLIYLGSNRASGVPDRFSGSGSGTDFTLKISRVEAEDVGVYYCMQALQTPLTFGGGTKVEIKR"
no binding (tested: 1000 nM),no binding (tested: 1000 nM),no binding (tested: 1000 nM),27,"Antibody E17 (antibody, human IgG1, kappa, L234A L235A, V domains shown) VH: QVQLQESGPGLVRPSETLSLTCTVSGGSIRNYYWSWIRQPPGKGLEWMGFIYDNGRTFYNPSLKSRVTISLDMSMNQFSLKMTSVTAADTAVYYCARVRAYSGIGLDGTDVWGQGTTVTVSS VL: DIVMTQSPLSLPVTPGEPASISCKSSQSLLYSNAYNYLDWYLQRPGQSPQLLIYLGSNRASGVPDRFSGSGSGTDFTLKISRVEAEDVGVYYCMQALQTPLTFGGGTKVEIKR"
no binding (tested: 1000 nM),no binding (tested: 1000 nM),no binding (tested: 1000 nM),25,"Antibody E19 (antibody, human IgG1, kappa, L234A L235A, V domains shown) VH: QVQLQESGPGLVRPSETLSLTCTVSGGSIRNYYWSWIRQPPGKGLEWIGFIYYTGRTFYNPSLKSRVTISLDMSKNQFSLKMTSVTAADTAVYYCARVRAYSGIGLDGTDVWGQGTTVTVSS VL: DIVMTQSPLSLPVTPGEPASISCKSSQSLLYSNGYAYLDWYLQRPGQSPQLLIYQGSNRASGVPDRFSGSGSGTDFTLKISRVEAEDVGVFYCMQALQTPLTFGGGTKVEIKR"
no binding (tested: 1000 nM),no binding (tested: 1000 nM),no binding (tested: 1000 nM),13.2,"Antibody E11 (antibody, human IgG1, kappa, L234A L235A, V domains shown) VH: QVQLQESGPGLVRPSETLSLTCTVSGGSIRNYYWSWIRQPPGKGLEWMGFIYDNGRTFYNPSLKSRVTISLDMSMNQFSLKMTSVTAADTAVYYCARVRAYSGIGLDGTDVWGQGTTVTVSS VL: DIVMTQSPLSLPVTPGEPASISCKSSQSLLYSNGYAYLDWYLQRPGQSPQLLIYLGSNRASGVPDRFSGSGSGTDFTLKISRVEAEDVGVYYCMQALQTPLTFGGGTKVEIKR"
no binding (tested: 1000 nM),no binding (tested: 1000 nM),no binding (tested: 1000 nM),51.9,"Antibody E14 (antibody, human IgG1, kappa, L234A L235A, V domains shown) VH: QVQLQESGPGLVRPSETLSLTCTVSGGSIRNYYWSWIRQPPGKGLEWIGFIYYNGRTFYNPSLKSRVTISLDKSKNQFSLKMTSVTAADTAVYYCARVRAYSGIGLDGTDVWGQGTTVTVSS VL: DIVMTQSPLSLPVTPGEPASISCKSSQSLLYSNAYNYLDWYLQRPGQSPQLLIYLGSNRASGVPDRFSGSGSGTDFTLKISRVEAEDVGVYYCMQALQTPLTFGGGTKVEIKR"
no binding (tested: 1000 nM),no binding (tested: 1000 nM),no binding (tested: 1000 nM),15.7,"Antibody E10 (antibody, human IgG1, kappa, L234A L235A, V domains shown) VH: QVQLQESGPGLVRPSETLSLTCTVSGGSIRNYYWSWIRQPPGKGLEWIGFIYYNGRTFYNPSLKSRVTISLDTSKNQFSLKMTSVTAADTAVYYCARVRAYSGIGLDGTDVWGQGTTVTVSS VL: DIVMTQSPLSLPVTPGEPASISCKSSQSLLYSNGYAYLDWYLQRPGQSPQLLIYLGSNRASGVPDRFSGSGSGTDFTLKISRVEAEDVGVYYCMQALQTPLTFGGGTKVEIKR"
no binding (tested: 1000 nM),no binding (tested: 1000 nM),no binding (tested: 1000 nM),20.5,"Antibody E13 (antibody, human IgG1, kappa, L234A L235A, V domains shown) VH: QVQLQESGPGLVRPSETLSLTCTVSGGSIRNYYWSWIRQPPGKGLEWIGFIYYTGRTFYNPSLKSRVTISLDMSINQFSLKMTSVTAADTAVYYCARVRAYSGIGLDGTDVWGQGTTVTVSS VL: DIVMTQSPLSLPVTPGEPASISCKSSQSLLYSNGYAYLDWYLQRPGQSPQLLIYQGSNRASGVPDRFSGSGSGTDFTLKISRVEAEDVGVFYCMQALQTPLTFGGGTKVEIKR"

# Continued, binder first:
Binder,binding result [1],binding result [2],binding result [3],Kd [4] [nM]
"Antibody E9 (antibody, human IgG1, kappa, L234A L235A, V domains shown) VH: QVQLQESGPGLVRPSETLSLTCTVSGGSIRNYYWSWIRQPPGKGLEWIGFIYYNGRTFYNPSLKSRVTISLDMSINQFSLKMTSVTAADTAVYYCARVRAYSGIGLDGTDVWGQGTTVTVSS VL: DIVMTQSPLSLPVTPGEPASISCKSSQSLLYSNAYNYLDWYLQRPGQSPQLLIYLGSNRASGVPDRFSGSGSGTDFTLKISRVEAEDVGVYYCMQALQTPLTFGGGTKVEIKR",no binding (tested: 1000 nM),no binding (tested: 1000 nM),no binding (tested: 1000 nM),25.1
"Antibody E12 (antibody, human IgG1, kappa, L234A L235A, V domains shown) VH: QVQLQESGPGLVRPSETLSLTCTVSGGSIRNYYWSWIRQPPGKGLEWIGFIYYNGRTFYNPSLKSRVTISLDMSKNQFSLKMTSVTAADTAVYYCARVRAYSGIGLDGTDVWGQGTTVTVSS VL: DIVMTQSPLSLPVTPGEPASISCKSSQSLLYSNAYNYLDWYLQRPGQSPQLLIYLGSNRASGVPDRFSGSGSGTDFTLKISRVEAEDVGVYYCMQALQTPLTFGGGTKVEIKR",no binding (tested: 1000 nM),no binding (tested: 1000 nM),no binding (tested: 1000 nM),27.9
"Antibody E18 (antibody, human IgG1, kappa, L234A L235A, V domains shown) VH: QVQLQESGPGLVRPSETLSLTCTVSGGSIRNYYWSWIRQPPGKGLEWIGFIYYTGRTFYNPSLKSRVTISLDMSKNQFSLKMTSVTAADTAVYYCARVRAYSGIGLDGTDVWGQGTTVTVSS VL: DIVMTQSPLSLPVTPGEPASISCKSSQSLLYSNGYAYLDWYLQRPGQSPQLLIYLGSNRASGVPDRFSGSGSGTDFTLKISRVEAEDVGVYYCMQALQTPLTFGGGTKVEIKR",no binding (tested: 1000 nM),no binding (tested: 1000 nM),no binding (tested: 1000 nM),27.8
"Antibody E15 (antibody, human IgG1, kappa, L234A L235A, V domains shown) VH: QVQLQESGPGLVRPSETLSLTCTVSGGSIRNYYWSWIRQPPGKGLEWIGFIYYTGRTFYNPSLKSRVTISLDMSINQFSLKMTSVTAADTAVYYCARVRAYSGIGLDGTDVWGQGTTVTVSS VL: DIVMTQSPLSLPVTPGEPASISCKSSQSLLYSNGYAYLDWYLQRPGQSPQLLIYLGSNRASGVPDRFSGSGSGTDFTLKISRVEAEDVGVYYCMQALQTPLTFGGGTKVEIKR",no binding (tested: 1000 nM),no binding (tested: 1000 nM),no binding (tested: 1000 nM),25.8
